Columns and labels:
[1] = target: FcRn-His6 (UniProt P55899); experiment: BLI; pH 6; details: bispecific antibody
[2] = target: Anti-NKp46_AB_F06 (human); experiment: BLI; antibodies loaded at 5 µg/ml on anti-human-Fc (AHC) or anti-human-CH1 (FAB2G) biosensors; antigen in solution (EGFR 3.125-200 nM; NKp46 and NKp30 1.6-100 nM) in kinetics buffer (PBS, 0.1% Tween-20, 1% BSA); 25°C; 1:1 binding model
[3] = target: Anti-NKp46_AB_H05 (human); experiment: as above
[4] = target: FcRn-His6 (UniProt P55899); experiment: BLI; details: bispecific antibody

Anti-NKp46_AB_F06 (human), sequence (heavy, as listed by the source, chain 1 of 2): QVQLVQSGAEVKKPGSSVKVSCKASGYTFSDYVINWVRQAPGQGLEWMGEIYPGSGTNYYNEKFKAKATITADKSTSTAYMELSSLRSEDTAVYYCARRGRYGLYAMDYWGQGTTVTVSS
Anti-NKp46_AB_F06 (human), sequence (light, as listed by the source, chain 2 of 2): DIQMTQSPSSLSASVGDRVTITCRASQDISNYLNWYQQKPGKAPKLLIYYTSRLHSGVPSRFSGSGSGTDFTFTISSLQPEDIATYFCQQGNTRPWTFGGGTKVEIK
Anti-NKp46_AB_H05 (human), sequence (heavy, as listed by the source, chain 1 of 2): as the sequence (heavy, as listed by the source, chain 1 of 2) above
Anti-NKp46_AB_H05 (human), sequence (light, as listed by the source, chain 2 of 2): as the sequence (light, as listed by the source, chain 2 of 2) above

| Kd [1] [µM] | koff [1] [s⁻¹] | Kd [2] [µM] | Kd [3] [µM] | Kd [4] [µM] | Substance |
| --- | --- | --- | --- | --- | --- |
| 0.392 | 0.0852 |  |  |  | Anti-NKp46_EF_H05 (from UniProt P01857) |
| 0.407 | 0.0576 |  |  |  | Anti-NKp46_AB_F06 (from UniProt P01857) |
|  |  | 0.0294 | 0.0377 |  | human EGFR ECD-His6 (from UniProt P00533 25-645) (receptor) |
|  | 0.0736 |  |  | 0.477 | Anti-NKp46_EF_F06 (from UniProt P01857) |
| 0.399 | 0.076 |  |  |  | Anti-NKp46_AB_H05 (from UniProt P01857) |
